# Laboratory results published in paper PMC12636033, “Chemical Engineering of Transcription Factors Uncovered Cell-Permeable μMax Modulators”.
# B1: dBr_Jan07_15832 (dsDNA)
# DNA 1: TGCTAGGTGCGGGGCGTGCCATTGTACCACGTGGCTGTCTGTGTTCCGTTGTCCGTGCTG
# DNA 2: CAGCACGGACAACGGAACACAGACAGCCACGTGGTACAATGGCACGCCCCGCACCTAGCA
# B2: dBr_Jan07_17404 (dsDNA)
# DNA 1: TTGCGTGTTGTGTCTAATATCCAAACTACACCACGTGTCTGTGTTCCGTTGTCCGTGCTG
# DNA 2: CAGCACGGACAACGGAACACAGACACGTGGTGTAGTTTGGATATTAGACACAACACGCAA
# B3: dBr_Jan07_07015 (dsDNA)
# DNA 1: CGATACTGTATCGCATGGACAGCACGTGCAATTAGGGTCTGTGTTCCGTTGTCCGTGCTG
# DNA 2: CAGCACGGACAACGGAACACAGACCCTAATTGCACGTGCTGTCCATGCGATACAGTATCG
# B4: dBr_Jan07_15488 (dsDNA)
# DNA 1: TAGTAGTCGTTGCTAGCTGCAAGGAATGGCGCACGTGTCTGTGTTCCGTTGTCCGTGCTG
# DNA 2: CAGCACGGACAACGGAACACAGACACGTGCGCCATTCCTTGCAGCTAGCAACGACTACTA
# B5: dBr_Jan07_05071 (dsDNA)
# DNA 1: CGTGTAACCTTCAGGCACGTGGTTTAATCGTTATCCGTCTGTGTTCCGTTGTCCGTGCTG
# DNA 2: CAGCACGGACAACGGAACACAGACGGATAACGATTAAACCACGTGCCTGAAGGTTACACG
# B6: dBr_Jan07_30456 (dsDNA)
# DNA 1: GGCGTTGTCAGGAAGGATTGGCTGTCGTCAACACGTGTCTGTGTTCCGTTGTCCGTGCTG
# DNA 2: CAGCACGGACAACGGAACACAGACACGTGTTGACGACAGCCAATCCTTCCTGACAACGCC
# B7: dBr_Jan07_18911 (dsDNA)
# DNA 1: ACAAACCCCGCACGTGCCTTCGCCCCCTCCTATGCGGTCTGTGTTCCGTTGTCCGTGCTG
# DNA 2: CAGCACGGACAACGGAACACAGACCGCATAGGAGGGGGCGAAGGCACGTGCGGGGTTTGT
# B8: dBr_Jan07_27753 (dsDNA)
# DNA 1: TTTTCATACGAACTTCGAGCTCCCCACGTGGTTCTTGTCTGTGTTCCGTTGTCCGTGCTG
# DNA 2: CAGCACGGACAACGGAACACAGACAAGAACCACGTGGGGAGCTCGAAGTTCGTATGAAAA
# B9: dBr_Jan07_02206 (dsDNA)
# DNA 1: GGCAGTCGGTCGTTCCAGATATTAGGATCTCCACGTGTCTGTGTTCCGTTGTCCGTGCTG
# DNA 2: CAGCACGGACAACGGAACACAGACACGTGGAGATCCTAATATCTGGAACGACCGACTGCC
# B10: dBr_Jan07_38389 (dsDNA)
# DNA 1: CAAGCCTATCGCGGCCAATCGGTAAGCACGTGACTAGTCTGTGTTCCGTTGTCCGTGCTG
# DNA 2: CAGCACGGACAACGGAACACAGACTAGTCACGTGCTTACCGATTGGCCGCGATAGGCTTG
# B11: dBr_Jan07_14484 (dsDNA)
# DNA 1: CTGCAGTTCTACTGTATCCACGACATAGAGACACGTGTCTGTGTTCCGTTGTCCGTGCTG
# DNA 2: CAGCACGGACAACGGAACACAGACACGTGTCTCTATGTCGTGGATACAGTAGAACTGCAG
# B12: dBr_Jan07_34042 (dsDNA)
# DNA 1: GCCGAAAGTCCCCCACGTGGTCAGTAAAAGAGAAGAGTCTGTGTTCCGTTGTCCGTGCTG
# DNA 2: CAGCACGGACAACGGAACACAGACTCTTCTCTTTTACTGACCACGTGGGGGACTTTCGGC
# B13: dBr_Jan07_27761 (dsDNA)
# DNA 1: ATATCGACCTTTTATTGAAAACCGGGAGTCTCACGTGTCTGTGTTCCGTTGTCCGTGCTG
# DNA 2: CAGCACGGACAACGGAACACAGACACGTGAGACTCCCGGTTTTCAATAAAAGGTCGATAT
# B14: dBr_Jan07_15201 (dsDNA)
# DNA 1: TTGCCTGGGATTAGATTCTACGCTCACGATGCACGTGTCTGTGTTCCGTTGTCCGTGCTG
# DNA 2: CAGCACGGACAACGGAACACAGACACGTGCATCGTGAGCGTAGAATCTAATCCCAGGCAA
# B15: dBr_Jan07_01656 (dsDNA)
# DNA 1: TCGATCACACACGTGCTTATTGTACCAAACACATACGTCTGTGTTCCGTTGTCCGTGCTG
# DNA 2: CAGCACGGACAACGGAACACAGACGTATGTGTTTGGTACAATAAGCACGTGTGTGATCGA
# B16: dBr_Jan07_17964 (dsDNA)
# DNA 1: ACTTGAATGAGGGCCTTTGATCTGCTTTACTCACGTGTCTGTGTTCCGTTGTCCGTGCTG
# DNA 2: CAGCACGGACAACGGAACACAGACACGTGAGTAAAGCAGATCAAAGGCCCTCATTCAAGT
# B17: dBr_Jan07_31967 (dsDNA)
# DNA 1: GTGTCACGTGTCGTTCATCCTTATTAACTAGGGTCTGTCTGTGTTCCGTTGTCCGTGCTG
# DNA 2: CAGCACGGACAACGGAACACAGACAGACCCTAGTTAATAAGGATGAACGACACGTGACAC
# B18: dBr_Jan07_24740 (dsDNA)
# DNA 1: ATAGAGCGTCAGAATAGTGACATACACGTGGTCCCCGTCTGTGTTCCGTTGTCCGTGCTG
# DNA 2: CAGCACGGACAACGGAACACAGACGGGGACCACGTGTATGTCACTATTCTGACGCTCTAT
# B19: dBr_Jan07_19348 (dsDNA)
# DNA 1: ACCTCTGTAAGTCTGAGTCTGATAACCACGTGTCGGGTCTGTGTTCCGTTGTCCGTGCTG
# DNA 2: CAGCACGGACAACGGAACACAGACCCGACACGTGGTTATCAGACTCAGACTTACAGAGGT
# B20: dBr_Jan07_23401 (dsDNA)
# DNA 1: TCTATGCTCGCGGATGCCCTTAAACTAGGCACGTGTGTCTGTGTTCCGTTGTCCGTGCTG
# DNA 2: CAGCACGGACAACGGAACACAGACACACGTGCCTAGTTTAAGGGCATCCGCGAGCATAGA
# B21: dBr_Jan07_01852 (dsDNA)
# DNA 1: AGGAGTCTTGCCGCACGGTCCCCGTCTTATGCACGTGTCTGTGTTCCGTTGTCCGTGCTG
# DNA 2: CAGCACGGACAACGGAACACAGACACGTGCATAAGACGGGGACCGTGCGGCAAGACTCCT
# B22: dBr_Jan07_31500 (dsDNA)
# DNA 1: CTCCGTGGGTTCGTGAGTTCATGGCGAAAAGCACGTGTCTGTGTTCCGTTGTCCGTGCTG
# DNA 2: CAGCACGGACAACGGAACACAGACACGTGCTTTTCGCCATGAACTCACGAACCCACGGAG
# B23: dBr_Jan07_38976 (dsDNA)
# DNA 1: CGACACAGAAAACAATTCCGACTTGCTTTCCGCGTGGTCTGTGTTCCGTTGTCCGTGCTG
# DNA 2: CAGCACGGACAACGGAACACAGACCACGCGGAAAGCAAGTCGGAATTGTTTTCTGTGTCG
# B24: dBr_Jan07_04601 (dsDNA)
# DNA 1: GGTGTACGCTAAGGATGCTACTACGACCTAACACGTGTCTGTGTTCCGTTGTCCGTGCTG
# DNA 2: CAGCACGGACAACGGAACACAGACACGTGTTAGGTCGTAGTAGCATCCTTAGCGTACACC
# B25: dBr_Jan07_06713 (dsDNA)
# DNA 1: AGTAACGGGGTCGCTTGATGGGCTCTTCCGCGTGGAGTCTGTGTTCCGTTGTCCGTGCTG
# DNA 2: CAGCACGGACAACGGAACACAGACTCCACGCGGAAGAGCCCATCAAGCGACCCCGTTACT
# B26: dBr_Jan07_40162 (dsDNA)
# DNA 1: CCTTGAACCATTAGCACGTGGATATATAAATCTTACGTCTGTGTTCCGTTGTCCGTGCTG
# DNA 2: CAGCACGGACAACGGAACACAGACGTAAGATTTATATATCCACGTGCTAATGGTTCAAGG
# B27: dBr_Jan07_34030 (dsDNA)
# DNA 1: GAACGAGGGACCGCTAGGATGCCACGTGATTAAAGTGTCTGTGTTCCGTTGTCCGTGCTG
# DNA 2: CAGCACGGACAACGGAACACAGACACTTTAATCACGTGGCATCCTAGCGGTCCCTCGTTC
# B28: dBr_Jan07_33198 (dsDNA)
# DNA 1: GCATAAACAAGGCCGCTGTAGCGGTTCGGTGCACGTGTCTGTGTTCCGTTGTCCGTGCTG
# DNA 2: CAGCACGGACAACGGAACACAGACACGTGCACCGAACCGCTACAGCGGCCTTGTTTATGC
# B29: dBr_Jan07_37076 (dsDNA)
# DNA 1: AAAACGTTCCGAGCCATTTAGAAGGGGTCACGTGATGTCTGTGTTCCGTTGTCCGTGCTG
# DNA 2: CAGCACGGACAACGGAACACAGACATCACGTGACCCCTTCTAAATGGCTCGGAACGTTTT
# B30: E-box DNA probe (dsDNA)
# DNA 1: CCGGCTGACACGTGGTATTAAT
# DNA 2: ATTAATACCACGTGTCAGCCGG
# Target: WT Max (Homo sapiens, UniProt P61244-2 13-93, M65Nle, norleucine written as M; other non-natural residues written as X)
# Assay: PBM; 50-200 nM protein; PBS, 2% milk, BSA, salmon testes DNA, 0.02% Triton X-100
# Settings: chain copies: 2; label: surface-attached array probe
# WT Max, sequence (P61244 other isoform, or with tags, fused parts or gaps M65Nle): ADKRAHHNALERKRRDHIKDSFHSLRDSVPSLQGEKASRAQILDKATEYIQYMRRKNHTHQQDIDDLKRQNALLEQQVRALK
row,Molecule,binding signal
1,B1,"3.84 robust z of log adjusted intensity (ours), mean of two arrays"
2,B2,"4.24 robust z of log adjusted intensity (ours), mean of two arrays"
3,B3,"3.94 robust z of log adjusted intensity (ours), mean of two arrays"
4,B4,"3.81 robust z of log adjusted intensity (ours), mean of two arrays"
5,B5,"4.32 robust z of log adjusted intensity (ours), mean of two arrays"
6,B6,"3.62 robust z of log adjusted intensity (ours), mean of two arrays"
7,B7,"3.79 robust z of log adjusted intensity (ours), mean of two arrays"
8,B8,"5.1 robust z of log adjusted intensity (ours), mean of two arrays"
9,B9,"3.71 robust z of log adjusted intensity (ours), mean of two arrays"
10,B10,"3.67 robust z of log adjusted intensity (ours), mean of two arrays"
11,B11,"5.27 robust z of log adjusted intensity (ours), mean of two arrays"
12,B12,"4.32 robust z of log adjusted intensity (ours), mean of two arrays"
13,B13,"3.44 robust z of log adjusted intensity (ours), mean of two arrays"
14,B14,"3.45 robust z of log adjusted intensity (ours), mean of two arrays"
15,B15,"3.68 robust z of log adjusted intensity (ours), mean of two arrays"
16,B16,"3.59 robust z of log adjusted intensity (ours), mean of two arrays"
17,B17,"3.79 robust z of log adjusted intensity (ours), mean of two arrays"
18,B18,"3.51 robust z of log adjusted intensity (ours), mean of two arrays"
19,B19,"5.01 robust z of log adjusted intensity (ours), mean of two arrays"
20,B20,"3.69 robust z of log adjusted intensity (ours), mean of two arrays"
21,B21,"3.5 robust z of log adjusted intensity (ours), mean of two arrays"
22,B22,"4.51 robust z of log adjusted intensity (ours), mean of two arrays"
23,B23,"3.81 robust z of log adjusted intensity (ours), mean of two arrays"
24,B24,"3.7 robust z of log adjusted intensity (ours), mean of two arrays"
25,B25,"3.79 robust z of log adjusted intensity (ours), mean of two arrays"
26,B26,"3.32 robust z of log adjusted intensity (ours), mean of two arrays"
27,B27,"3.45 robust z of log adjusted intensity (ours), mean of two arrays"
28,B28,"3.33 robust z of log adjusted intensity (ours), mean of two arrays"
29,B29,"3.31 robust z of log adjusted intensity (ours), mean of two arrays"

# Target: WT Max (synthetic µMax scaffold) (UniProt P61244 22-102)
# Assay: BLI; EMSA: 10 mM MES pH 6.0, 150 mM KCl, 1 mM MgCl2, 10% glycerol, room temperature, 1 uM DNA; BLI: global 1:1 fit, buffer not in material
# Settings: chain copies: 2
# WT Max (synthetic µMax scaffold), sequence (P61244 22-102): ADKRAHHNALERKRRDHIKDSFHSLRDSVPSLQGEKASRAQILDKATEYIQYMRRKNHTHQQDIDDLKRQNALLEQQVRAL
row,Molecule,Kd [nM]
1,B30,8.1 ± 2.24

# Target: µMax H19Y (UniProt P61244 22-102, H28Y)
# Assay: EMSA; 3 uM protein, 1 uM DNA; EMSA: 10 mM MES pH 6.0, 150 mM KCl, 1 mM MgCl2, 10% glycerol, room temperature, 1 uM DNA; BLI: global 1:1 fit, buffer not in material
# Settings: chain copies: 2
# µMax H19Y, sequence (P61244 22-102 H28Y): as the sequence (P61244 22-102) above, with H7Y counted along it
row,Molecule,binding result
1,B30,binds

# Target: µMax20 (UniProt P61244)
# Assay: BLI
# Settings: EMSA: 10 mM MES pH 6.0, 150 mM KCl, 1 mM MgCl2, 10% glycerol, room temperature, 1 uM DNA; BLI: global 1:1 fit, buffer not in material
# µMax20, sequence (P61244 whole entry): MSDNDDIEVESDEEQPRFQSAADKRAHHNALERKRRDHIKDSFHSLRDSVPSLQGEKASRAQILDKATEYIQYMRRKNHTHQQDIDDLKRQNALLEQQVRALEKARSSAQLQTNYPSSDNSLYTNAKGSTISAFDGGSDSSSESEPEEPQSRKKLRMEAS
row,Molecule,Kd [nM]
1,CCGGCTGACACGTGGTATTAAT (double strand) [E-box DNA probe],4.38
